Columns and labels:
IL-7Rα subunit [1] = molecular target: T1, IL-7Rα subunit (Homo sapiens, UniProt P16871); assay: Phage competitive binding assay characterizing the IL-7Rα ligand binding site; settings: for Competition with Phage Clone SEQ ID NO: 5 (Family 1) for binding to the IL-7Rα subunit: phage clone 5, immobilized IL-7Rα ECD; for Competition with Phage Clone SEQ ID NO: 43 (Family 3A) for binding to the IL-7Rα subunit: phage clone 43, immobilized IL-7Rα ECD; for Competition with Phage Clone SEQ ID NO: 104 (Family 3B) for binding to the IL-7Rα subunit: phage clone 104, immobilized IL-7Rα ECD; for Competition with Phage Clone SEQ ID NO: 313 (Family 2) for binding to the IL-7Rα subunit: phage clone 313, immobilized IL-7Rα ECD
IL-7Rα subunit [2] = molecular target: T1, IL-7Rα subunit; assay: Competition of IL-7Rα ligands with IL-7 for binding to IL-7Rα

T1 sequence (P16871 21-236): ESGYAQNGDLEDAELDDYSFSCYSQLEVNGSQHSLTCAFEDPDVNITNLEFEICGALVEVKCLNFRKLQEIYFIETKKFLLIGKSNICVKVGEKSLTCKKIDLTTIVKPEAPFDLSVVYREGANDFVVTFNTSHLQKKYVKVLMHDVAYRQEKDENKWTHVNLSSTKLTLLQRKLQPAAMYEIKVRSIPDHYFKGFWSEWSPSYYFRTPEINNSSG

Row | Substance | Competition with Phage Clone SEQ ID NO: 5 (Family 1) for binding to the IL-7Rα subunit (IL-7Rα subunit [1]) | Competition with Phage Clone SEQ ID NO: 43 (Family 3A) for binding to the IL-7Rα subunit (IL-7Rα subunit [1]) | Competition with Phage Clone SEQ ID NO: 104 (Family 3B) for binding to the IL-7Rα subunit (IL-7Rα subunit [1]) | Competition with Phage Clone SEQ ID NO: 313 (Family 2) for binding to the IL-7Rα subunit (IL-7Rα subunit [1]) | Competition with Phage Clone SEQ ID NO: 965 (N/A) for binding to the IL-7Rα subunit (IL-7Rα subunit [1]; phage clone 965, immobilized IL-7Rα ECD) | Competitive binding with IL-7 binding to IL-7Rα (IL-7Rα subunit [2])
1 | QCVHWDLDTLFGCIREQLEL [SEQ ID NO: 146] | +^1 (IL-7Rα ligand competes with phage binding.) | + (IL-7Rα ligand competes with phage binding.) | + (IL-7Rα ligand competes with phage binding.) | + (IL-7Rα ligand competes with phage binding.) | 0^2 | do not bind competitively
2 | Q C I H W D I E T L L S C V [SEQ ID NO: 5] | + (IL-7Rα ligand competes with phage binding.) | + (IL-7Rα ligand competes with phage binding.) | + (IL-7Rα ligand competes with phage binding.) | + (IL-7Rα ligand competes with phage binding.) | – | do not bind competitively
3 | Y M A C S S G L S L C R L S [SEQ ID NO: 104] | + (IL-7Rα ligand competes with phage binding.) | + (IL-7Rα ligand competes with phage binding.) | + (IL-7Rα ligand competes with phage binding.) | + (IL-7Rα ligand competes with phage binding.) | – | do not bind competitively
4 | V Y C A E I G E Y R V C R Q [SEQ ID NO: 43] | + (IL-7Rα ligand competes with phage binding.) | + (IL-7Rα ligand competes with phage binding.) | + (IL-7Rα ligand competes with phage binding.) | + (IL-7Rα ligand competes with phage binding.) | – | do not bind competitively
5 | G G V P W C T L D P G S L Q C A W F [SEQ ID NO: 313] | + (IL-7Rα ligand competes with phage binding.) | + (IL-7Rα ligand competes with phage binding.) | + (IL-7Rα ligand competes with phage binding.) | + (IL-7Rα ligand competes with phage binding.) | – | do not bind competitively
